Laboratory results: a protein production outcome set (Wang et al. 2014)

Test: label from the status in PepcDB records
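Also: failed if final PepcDB status was selected cloned or expressed and not failed if soluble or beyond.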

Row | Sequence | protein production
1 | MQEIIIQVMNQFGYFGVAFLIMIENIFPPIPSEVILTFGGFMTTYSELGIIGMIIAATIGSVLGALILYFVGRLLSVERLEKLVSGRLGKVLRLKPEDITKAEKWFLKRGYATIFFCRFIPLIRSLISIPAGSAKMKLPSFLILTTLGTLIWNIVLVCLGAALGDNWEMIAGILDSYSSVVVVILGIIFILAILIFVKKRFFPKNKNYSSDTEK | not failed
2 | MIEDTLHAIAQQDYPAESYEVLLINDGSKDNTLEIAENLAKIYPCIKIVNVPKGMGGKGKSRTLNNGLPHAKGELIVVYDADSTPEPDCVRLLAQTLLADKKLVAVNGKVRTRNWQDSILTRFIAIEFIFFQWIFQGGRWQRFELSTLMGTNYVIWRDALETLGGFDEKSLVDDTEMSFRIFIGQKRIKWVPYAIGWQQDPPSLSVFVKQRSRWTQGNFYVTRKYLPVALRTPFPIGIEILNNIMCYILFVPALFWSHITLTLGLLDIAGISVPGPFTLLWGLSFCLYVAQMWFTLSLEKVKPELYFYSVLSYVSYSQIFLFIVFKAAFDMLKNKIQGNSLQWYKTERSKEKK | failed
3 | MRARHASCMHPPSLSADPVALMTDTPASSETSASGWRRALPVIVSLAILAMALHALSSQFTDHGYRQIRHAFRALGAGQITLTLLLGLSSYVCLVGFDWVGLKRTGKQLHPARVGITAFMAHAVGQTLGFAALTGGAVRLRGYGSVGLTLAEIGQVVLMSTLGFIFGAWVLLGLALMLEPEAAARALPITAQAIRIAGIALLVGYVAMLMLVGRQGREFGIRSHRFWLPDRTTVLGVTALSVVELGLAAAAFYVLLPPDSGTGYFGFIGIWLVAVVAGLISTVPAGLGVFEWSLLELLPHVTPAAVLAAALVYRVTYYIVPLLISVAMAAASGLRVPVRVGASTARSVWKALRPWLPQILALAVFAVGAALVIDGTLPTPAARQEVAPLPLIETSHLLVSLGGMMLLLIGQGLQRRSHSAWMLALGVCLLVPPFALLRGSHISVSLSAALAAVALWAARREFYRQGALLDEAWSWRWLSNLGLVLVATFWLLFFVYSHVEYSNDLWWQFATSANAPRALRAALILCVGVIVFGMARLLRGGRRPMPAADAPTLRTLAPILATSTDTQACLALTGDKAFLLDEQSSGFVMMQRYGGSLISMGDPVGSPEVARALIWRFREEADQMGLRTVFYQVGEKHWQTYLDMGLTLVKLGEEAIVPLEGFTLEGRDRADLRQAWNRGKRGGLSFRMLQPEQVDEVLPRLAEVSDQWMEEKSGEEKGFSLGSFDADYLRRFPVAVAEAEGQIVAFANVWWAPAGGELSVDLMRHSAEAPKGTMDFLFIELFLWGQANGYTRFSLGMAPLSGLAEHRLAGRWNRFASLVARHGERFYGFSGLRRFKSKFDPTWRPRYLVAPGGMHLPAALLDVTRLISADPRRQE | failed
4 | AGGEDRGDGEPVSVVTVRVQYLEDTDPFACANFPEPRRAPTCSLDGALPLGAQIPAVHRLLGAPLKLEDCALQVSPSGYYLDTELSLEEQREMLEGFYEEISKGRKPTLILRTQLSVRVNAILEKLYSSSGPELRRSLFSLKQIFQEDKDLVPEFVHSEGLSCLIRVGAAADHNYQSYILRALGQLMLFVDGMLGVVAHSDTIQWLYTLCASLSR | failed
5 | MKTLVDHLSQYANYHRDPRNIATHFVGIPMIVLAVTILLSRPGWEIAGMWLSPALLAAAASVWFYLRLDLRFGLVMGLLLGLCLWVGEALAVQSTTLWLGAGLGAFVVGWIIQFIGHYYEGRKPAFVDDVSGLIIGPLFVVAEAAFMLGLCPTLKRAVEANAGPIAMRQKKASV | failed
6 | MKTVLAFGDSLTWGADPATGLRHPVEHRWPDVLEAELAGKAKVHPEGLGGRTTCYDDHAGPACRNGARALEVALSCHMPLDLVIIMLGTNDIKPVHGGRAEAAVSGMRRLAQIVETFIYKPREAVPKLLIVAPPPCVAGPGGEPAGGRDIEQSMRLAPLYRKLAAELGHHFFDAGSVASASPVDGVHLDASATAAIGRALAAPVRDILG | not failed
7 | MSMSSSSSICGDEDGDLLLDEEEEIDFYAILNVPKDATDDEIIKAYRKRCLMFHPDRFVDNDEKKDAERVFVKLRRAHEVLLDPKQRAIYDALGVQGLDTQGWEL | not failed
8 | MVAVENVVFVFVAGLLTALATGLGAIPFFLVDEFSDRWNVLLWGLASGIMVAASLFGLVREGLAYGSPVLLVPGVLAGVGLVAVAHELLDDFDQSPKQFEQADFTKLLLILGILTVHSFPEGVAVGVSFAELGLEAATPESAVGIVGVSVPLLAVFMTVAISIHNIPEGTAIAIPLRSLGVSEWKMVWWAVFSSLPQPVGAVIAYYFVTLAKAFLPFGFGFAAGAMVYLVLTEFVPEALEYGDGLPGGGKRELLTGIAVGVLAMVPLAFV | failed
